Among the data in patent US5807698 are CDK2 histone H1 kinase activity in G1 cell extract values, retold here.

The target in the experiment is human p33 CDK2 (human) (UniProt P24941).

Chain of human cyclin E (P24864 16-410 limits assumed): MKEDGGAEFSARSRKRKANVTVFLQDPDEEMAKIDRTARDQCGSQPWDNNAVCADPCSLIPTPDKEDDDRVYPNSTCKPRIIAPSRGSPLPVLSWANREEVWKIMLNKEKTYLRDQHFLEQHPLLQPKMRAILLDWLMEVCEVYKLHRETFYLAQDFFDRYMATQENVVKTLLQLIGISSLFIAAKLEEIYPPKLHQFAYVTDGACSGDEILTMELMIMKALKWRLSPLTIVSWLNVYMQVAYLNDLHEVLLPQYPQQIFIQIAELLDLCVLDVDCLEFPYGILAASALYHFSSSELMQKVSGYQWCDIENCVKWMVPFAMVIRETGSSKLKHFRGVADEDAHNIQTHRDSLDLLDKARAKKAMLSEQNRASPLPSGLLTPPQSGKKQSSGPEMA

Turning to human cyclin E, the CDK2 histone H1 kinase activity in G1 cell extract was 22 fold.
